This series is described as follows: protease stability score; higher = more stable; yeast display proteolysis, trypsin and chymotrypsin.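 Also: log10 excess protease needed over predicted unfolded state with 0 meaning unfolded.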

For “EEEKLKKVAEEVFRMVQNGNYDQLAKLGKDNAEFQFADHRLKGKEQYKKYLEELVKRGVQFEVKKAQLKDNTVTMVTKAKYADTEATVTVQAKYEGGKLDRARVKLSEEVKKVLKKG”, the protease stability score was 0.065.
To “EEEKLQKVAKEMFDAVQKGNVDKLKKLGKEDVEFQFVDHRVKGADHYLQIMKKQLDHGVQFEIKQAQVKDNTVTMTTQVQYGDKTVRVEAKAEYDGGRLQRAEVKLTEEAKEAQKKG” belongs -0.026; to “EEEKLQKVMEKMFRAVQNGNVEQLKKLGKEDVQFQFVDKRVQGAETYAQEMEKTHRQGNQFEIKEAQVKDDKVTMRTVVDYGDQRITVKAEAQYDGGRLDNARVELTEEYREVLKKG”, -0.214; to “EEEKMEKLMKQLFDAVQKGDVDKFVKYLKEDVEFQFGDNRIKGVEEYKRTMEEMHKKGVQFEIKEAQNKDDTVKMRTVVHYGNQTFEVTAEATYDGGVLDKARVEVSEEAKEAFKKG”, 0.992.
“EEEKMKKIIKRMFDAVQKGNTEELRKYGKEDVKFEFIDDRNEGPQQYAERMKKMMKHGVQLEIKEVQLKDNTATMYTVVEYGNRRVTAKAEFEYDGGKLKEARVKISEEAKKVIKTG” had a protease stability score of 0.119.
With “EEEKVKKVVKKLFEAVQKGDKKKLQELLHEDVEFQFGVKRVKGAEQYMRTVDELRQRGVQIEVKKYQVKDDKARMVTVVRYGDKTVTMTAEAEYEGGVLKRARVELTDEAKELVKKG” the figure was 0.41.
“EEEKYQKLAKKVFEAVDKGNYEEVVKLGDENGKFQFGDNRVEGLEQYKRLMEKFEKKGVQVRVRKAQNKDDTATMVTTVKYGDVENTVTAELKYEGGKLKEARVENDEEVKEAVKKG”: the protease stability score is 0.031.
For the sequence “EEELADLLRRFLENVKDNDENQLKRNLDPNVRVLVGDKTLHGREDVARWLTKHQREQRVEYRIKEYEIHGNHFNATMQAQNTNNGKPRTFEAVIRVQFRNGRFQVIQIEDKQ”, the protease stability score came out at 1.39.
For “EEELAKRIRDFLHWVEKGNDDRAMELADPNARVDIGDRDIHGRESIREWVKKMQDKQRVEFDVKHVTVRGNTVVVDLVMRVEHNGQPSETKYQFEAKDNNGHLKFIKVTTIS”, the protease stability score came to 1.3.
Sequence “EEELAKSYVELLKQLSEGNEENLKELMDPNARIEVGDKELHGREDIVNTWSKEAREIRIHYEIKHIEQEPGRVTIHARVEVQHDGQPSSKDFNVVFTAKNGRLTKMTVQDDG” had a protease stability score of 0.767.
“EEELEEQLHRLLQLIREGNEHKVKEQMDPNVKVVYGDKEYKGRDEVETYLEEVINHWRVNFRVKHITVKGDKVDMKAEASYTHNGRPVNRKLTINAEIHNGRFKTLEFKWDG” displayed a protease stability score of 0.214.
In turn, “EEELEKEAEKFFRIVHDGNEDDLKRYMDPNVDITVGDKSLTGHSHYARRVKQKKRELRVDIKIESIKADGNRVSATVVWVNNHNGEPQSDAAEVEFNFHNGRVTHIRNDDDK” registered a protease stability score of 0.151.
“EEELERRVEDQFKDWNTGDPDRDREMFDKDATVRVGDKKIKGSSQFRDELEKRRREMEFHVEVKDIQDEPGRVNVTFKFRTNHNGQPKEDTMRFHMTWHNGRIKHMSIHHDG” yielded a protease stability score of 0.641.
To “EEELFEQWQKIIENQEHGNEDRLQDQFDPNARIDVGDKRIRGRENLAKDQQDKLDNIRFDFQIDHVQDRPGKIVIKYHEVNNHNGKPRSDTVVVHIQAHNGKIQRIDVQKDK” belongs -0.065; to “EEELKKVWTEMQDALENGNEEKIEENFDPNAHFQIGDTHIHGMHEWAHQQFREMKDIRVQVEIESVTFSGDKVNVEYSFTLEIDGRPQSNTATMSARVHNGHFKSVSIRIDPKELKDRQK”, 0.601.
“EEELLERIKTFVKVYEHGDFKRLHRNLDKDVRVVVGDKHVRGREEAVRDMSEELRNMDQKIDFKTMHITNGKANLDFHFQNTVNGQPRRDRAHLIIRLHNGKFQEIKIQFSEEQERRQKG” yielded a protease stability score of 0.608.
“EEELLQRATEFLHAQETNDPKRLKEQADPNARFRVGDKTIHGMDEYVRQLEQTEREMKVSLEIKHVTLTGDKADVEAEVTKDRNGRPDRFRVRYEFEARNGKFVDVRIQEDR” displayed a protease stability score of 0.336.
The sequence “EEELNKVFEDLLEAEKTGDPDKIMRYFDPNARVSYGDKHIHGREEIRKDADRRKEHMRRDIHDYRIDARGDKVRFTADFTQTHNGQPRRHRMRMEVRVKGDKFRHFRIDEDG” yielded a protease stability score of 0.083.
With “EEELQKKASEFIRLQQKGDSEEVMKNVDPNARINVGDKVYDGREQLAKDLHRSKRESRMHFDLKSISVENGKVDVRARMHVVENGQPRRFRVRIIFHQENGRITHFQYHTDD” the figure was 0.258.
Regarding “EEELRHTAHELQKAYEENDPEKILENLDPNAQVQIGDRRVHGRHEIRKLMEHFERQARVRVHDVKVDVHGNKINIQVDAEQNHNGEPRSFTVQAEMTMHNGRVKSIDMKIQG”, the protease stability score is 0.612.
To “EEELRNVYRDLLEAEERGNPDDIKRLVDPNARLQIGDKEIHGREHLMRFVEEVRKEIRFEIDRLDVTATGETAKVDARVKQNHNGQPESWHYTVQVKYHNGRIVNLRMRRTS” belongs 1.31; to “EEELVKKAKTFMKQEEDGNPEKLKEYADENVRMHVGNKEVRGMDQYAEDVRRKREEARFSFKSIDAKASGDKITVRATLTFNVNGKPVEIDMTIILKLHNGRLKFLKVRVDPDEERRLES”, 0.595.
With “EEELVKRLKELFEAYQTGDEHQLKDLMDPNVRANIGDKTFHGREKLITHIKRYLDELDFQLKSVTFRLSGDHAVVTFEIEVDVNGVPRSFRFRFHIKMSNGKVTEIEIQFDPERQKKLES” the figure was 1.38; with “EEEMVKHIKRVLENNDEERRAQLADKDAHARVGDRHVHGREELEKIVHHIKRRVDHLEVKDVKADGNTIEADVVMQVDGRTMQYNLTIILHNGTIKSVTIKVRNEEQKKLMEELFG”, 0.317; with “EEENFNRANEFMKAVETNDPDKLKHNADENVQITYGDKSYQGRESWAKDLQRKLKHMRWRYEFKSYHDTGDSVDVSLRVMATVNGKPRDFHLRMIIHFKNGKIKNIELRLDPDELDKLES”, 0.648.
As to “EEENQKLAKKFITAVNKGNPKELNENVDPNARLVIGDKTIHGRETLDRWAKKVKDDMRNHWHVTSLRVSNGDIKADVKVVINHNGKPDDFTLDMTMEVHNGKIKRMDARDSQ”, the protease stability score was 0.157.
With “EEENQQIAEDVVDVLRTGDHEKFMHMADPNVKVVIGDKQYRGREDFSKIVKTWKDQMRLHIQIKDVKVEGDEVHVEADYLMKHNGKPVRDTITLVIRFDNGKIKEVQYEVDEDVLRKLES” the figure was 1.14.
To “EEENSKLMEEIVKAISNGNPDRVRENMDPNARARYGDKRIHGMENILTQIERRWRQIRIQVDDVKLSVENGTINVDIQQRNDNNGQPDNFRLEASASVENGKVKEMNVVKRP” belongs 0.014; to “EEENVKLVERFLKAVLEGDEDQLRRLMDPNARVRVGDKVLTGRDRVAEHFKERSQQWQFHIDVKHVSVNGDHIIMHFQFSMTVNGQPRSATMTAVFRVHNGRIQQVEFRLPEEDQKTIRG”, 0.811.
To “EEENVKVAQEIINIEDRGDSDQIHRLFDPNAHWTVGDQDIHGRETWLTKFRKEREEMRVRFRTLHFNAHNGRAVVRVEQEVTHNGTPTTKVYIMKVEFRNGKVKSIVFQSDG” belongs 0.235; to “EEEQITKLEEVLKDVETGDPNKLIDNFDPNVRYDYGDKKYHGMTNWAKDVVSKAKEQHVTRHVTDVKVQGNHASMTADVNNDHNGRPHKQKQDIQFTFHNGKIKNVHVQETK”, -0.667; to “EEEQLHNVVRALNQNDFDKFRKLIDPNARVVVGDKSWHGREDLSNYIKQLQDHVDHRTVKDVKWHNGKIHADVEQTVNGKKMRFVFQAVVKGDKVKELNMKFRDERVETLMRKVLR”, 0.14.
The sequence “EEEQLKILQELRKALQDNDSERMKELFDEDVKVQVGDKTITGREKVVDDLRRKAEEQRIQYVTMSARAENGHITVRLQFVNTHNGRPHRRERKLDITLHNGKFKSARYDNDG” showed a protease stability score of 0.842.
The sequence “EEEQLKTVKQWQENEKTGNEEELKKQADPNAKFRIGDHEVRGMENYAHDVIRRVKDARVDYETISHDVNGDRVVIRAVYRMNHNGRPSSYEYTVHYEMHNGKMKNVTVNKRQ” came in with a protease stability score of 0.041.
The sequence “EEEQQKVLEELFRVLQEGDEKRAIKLADPNAKFNVGDKQYNGMEEYARSVATEIRNIRVEIETMDARVQGDHVQVNIVVNYKINGQPFRMTIKVRANVHNGQVHELNMHVDEDQQRKLKT” had a protease stability score of 0.014.
As for “EEERDKFAKILLHAILTGNEEQFKRLADPNATFNIGDRKIHGMERYTKQMKQEVDRIKIKVESVKISVSGNKITIDMVATFNVNGQPVTIRFVLDVTIKNGRVSELVLRVSDEQLQKMRR”, the protease stability score was 0.308.
To “EEERQKKAEQWVHAYRHNNEDEIRQLADPNVRFNVGDTRITGRENVMKTLDDQMRHQRVRFHDIQIRVKGDKINITIDAEYESNGRPSRRTLSLEMHLHNGKISHARIDIQG” belongs -0.128; to “EEESAQEFMKNLNTGNFEELNKMADENARMQVGDKTFQGRHQIETLLKTLKKQIDHVSFKSVEMNGDKVDAKVVFQVNGQHFEVIVKVDVRGDRVTHVTYEFTNEDQEERFKRAVQ”, 1.35; to “EEESHQVAENIARILQTNDPRRLAELMDENARVRVGDTQLSGREDIEKQMDKEMKEIRVEIKNYEIDAKGEKIDIDVDQVFVHNGKPDRQRVKYDFDLRNGQIKRASVSVHK”, -0.188.
Regarding “EEETVKHLVQLFRTGDWDQLAKEMRDNVEVIIGDKRLHGRENAEQLARILKKHIDHQSYESMTFHNGKLVMKYEFVFNGRRVRARLVVNVHNGKIVNMQLDFTDPRDERLWKKVVE”, the protease stability score is 1.66.
To “EEETVKRMAEHVNHALQENDPKKMNDLFDENVQVDVGDTRIHGREDLTKYVKTFKQRVDQVEIQRVDVQGNTVVILMVLEHNGHRRQVVVIMHFHNGKVKEMRVTDK” belongs 0.097.
With “EEEVAKHALEIMITGDPKQIKEMVDENAHVKVGNKEWHGREHMVHWAEQLHTQVDHREVRSMEVNGNTARVDLVVTINGHHIRFILRATIHNGRVQHLSLEVTNEEQQTQWERNLS” the figure was 0.075; with “EEEVEDQAKKYAKALHDNDPKTLSKLADKDAEFRYGDHQFHGREEVEKHWEKELKEIEVDWRVVDVKAHNGQVRIRFQAHRHHNGDPKNDNRKASARVTNGRIKKIEWVEDH”, -0.059; with “EEEVEKAAERVAEVMKDNNPERVEELFDPNAHITVGDRTLHGREELSKHYKTMTDQWRIQIDRFSVEDHGSTVVIRIDFEADHDGRPEKREVIIKLSVSNGRVSWAIFKVDQ”, 0.734.
To “EEEVKRKMKEYFDVARHGDPDRLREYVDENARIHIGDKVIHGMSDAADHLAQHYKEIRFDYTRIDVKAEGDQVKVDIDVVVNHNGRPEQVHLHWEARFTNGRVKHMKVQRQK” belongs -0.108; to “EEEVQHKIKQLLKNNDWTTLADQVDPNARMVVGDKTVTGREQIQTIARRIQERVDHVEFKQLTVQGDHIDVVMVVNINGEHIKMHFIFRVHNGHIKHVEMQATDPRDQKKLKDLLE”, 1.54; to “EEEVSKRAREFVEAYQTGNEDKMHRLVDENADAQYGDKHIHGMTEIKRHVKRLTEEIRVQVESMDVKANNGHVRVRVHLVLHINGNPIDVTVIIVMRFKNGTIRSVQFRMPEEARDTIRK”, -0.077.

Values taken from the NTF2 design screens of Basanta et al. (2020).
